Data published in patent US8835136B2, “Engineered amine dehydrogenases and methods of use thereof” (Georgia Tech Research Corporation, priority 2012, dated 2014).

Experiments:
[1] = Conversion with GDH cofactor recycle system (PheDH-AmDH); type: biochemical; conditions: 100 mL, 20 mM PFPA, 48 hours
Experimental: The GDH consumes glucose present in solution to cheaply and efficiently regenerate the NADH cofactor, allowing conversion to continue beyond stoichiometric depletion of NADH. In a 100 mL reaction volume containing 20 mM PFPA, conversion was allowed to continue for 48 hours followed by extraction and ^1H-NMR to confirm the product formation and conversion levels. […] Under the same reaction conditions, 17.46 mg of the AmDH enhanced the overall conversion to 93.8% and 73.9% yield. Evidence of chirality was indicated by different NMR signals of the C3 hydrogens (δ 2.67, 2.49) which are adjacent to the C2 stereocenter (FIG. 18).

[2] = Enantioselectivity of PFPA amination, chiral gas chromatography; type: biochemical; conditions: chiral GC after TFAA derivatization
From the text: Equally important to conversion is maintaining the selectivity of the enzyme after altering the substrate specificity. Preservation of the wild type (S)-selectivity towards phenylalanine will result in the asymmetric production of (R)-1-(4-fluorophenyl)-propyl-2-amine due to a change in Cahn-Ingold-Prelaw priority. The product amine resulting from enzymatic conversion with the co-factor recycle was isolated and derivatized using trifluoroacetic anhydride for analysis via chiral gas chromatography. An enantiomeric excess of >99.8% toward (R)-1-(4-fluorophenyl)-propyl-2-amine was confirmed, however, further resolution of the selectivity was limited by the separation capability of the chiral column. Throughout all experiments, the (S)-enantiomer remained below the detection limits. Even as the enzyme approaches levels of conversion beyond 90%, the high enantioselectivity toward (R)-1-(4-fluorophenyl)-propyl-2-amine is maintained. This renders the AmDH/GDH system a viable method for the production of chiral amines.

B1: K77S N276L: PheDH-AmDH double variant, SEQ ID NO:2; PheDH library 1 hit 1H4 (protein)
chain: SLVEKTSIIKDFTLFEKMSEHEQVVFCNDPATGLRAIIAIHDTTLGPALGGCRMQPYNSVEEALEDALRLSKGMTYSCAASDVDFGGGKAVIIGDPQKDKSPELFRAFGQFVDSLGGRFYTGTDMGTNMEDFIHAMKETNCIVGVPEAYGGGGDSSIPTAMGVLYGIKATNKMLFGKDDLGGVTYAIQGLGKVGYKVAEGLLEEGAHLFVTDINEQTLEAIQEKAKTTSGSVTVVASDEIYSQEADVFVPCAFGGVVNDETMKQFKVKAIAGSANLQLLTEDHGRHLADKGILYAPDYIVNSGGLIQVADELYEVNKERVLAKTKHIYDAILEVYQQAELDQITTMEAANRMCEQRMAARGRRNSFFTSSVKPKWDIRN
conversion of 4-fluorophenyl acetone ([1]; 7.48 mg AmDH): 89.4% | overall conversion ([1]; 17.46 mg AmDH): 93.8% | enantiomeric excess toward (R)-1-(4-fluorophenyl)-propyl-2-amine [2]: > 99.8%
